B1: Syn5 RNAP: single subunit DNA-dependent RNA polymerase from marine cyanophage Syn5, amino acid sequence SEQ ID NO:23 (protein)
chain: MSFDLIARQLQRETEAAELARKRLQDARREANERSYASSNIESRKAIATFLDPIAQRIGERLFTLRRGTGAVDAAEVYKHLKNADHHHLALITMKTALDVLGKDPEPQIQQLTTAIGRNIQLELRLTYYAEENPELYKQASRFFHAGTGTRQKATVIKLKFNREGIEWDQWSRVTCHKVGQWLMLAMADVTGWIERATDRTSGGRKTKTRICYSREFLQHRDTILAAAEQLAFCQWPMLCPPIEWSNDHNGGYLSEQIRRVNPLIRKTGPLGTRKQGDIPLAMLNNLQGQAYKVNPEVLDIANHCYESNVTVGKFIRHAPLPVPPSPGEDCTEDQLTAYKRARREAEDFNAQISQKNWRTTEVMYVARKYADEASFWMPASFDYRGRVYFLNTALNPQGTDFDKALLYFAEEGPVNEWWLSFHVATTYGLDKETMVNRVQWARDNHELIDRIASDPVRHTEWHDADEPWCFLAACLEYKACVIDGTKQTSGLPIGIDATCSGLQHLAAMTRCGRTAALVNVTPTDKPADAYKTVAQASLKHLPKEQHEWITRKVTKRPVMCTPYGVTMSSARGYIRDQLVKDGHKEDLRSPGVLNGIVKAIFNEAIPEVIPGPVQVMAWLKRSAGQIIDRGDSTITWTTPSGFEVVQDLKKSKTYEVKTRIMGGARIKLQVGDGFTDEPDRDHHKSALAPNVVHSNDASLLHLTFAFWDKPFTVIHDCVLGRSCDMDQMGSDIRLHFAEMYKADVMQDWADQVGVELPVDLIKNTLDIDSVNQSLYFFS
modifications: Amino acid sequence of a cyanophage Syn5 RNAP

Columns and labels:
[1] = tested on: Syn5 promoter; experiment: Cross recognition of promoters, gel transcription assay; format: biochemical, cyanophage Syn5; conditions: for transcription from a Syn5 promoter: T7 DNA fragment with T7 promoter replaced by Syn5 promoter
Protocol: FIGS. 3A-3C depict characterization of the Syn5 promoter. A) Determination of the 3′-end of Syn5 promoter. 3′-dATP, 3′-dGTP, 3′-dUTP replaced ATP, GTP and UTP, respectively, as chain terminator to sequence the 5′-end of Syn5 RNAP transcript on a template same as template 1 in FIG. 2B. Once the 5′-terminus of the transcript was determined, the sequence preceding it should be the promoter and the 3′-end of the promoter can thus be defined. A 25% TBE-urea gel was used for this assay. B) Cross recognition between Syn5 and T7 transcription systems. Syn5 RNAP synthesizes runoff products on a fragment of T7 DNA provided the T7 promoter is replaced by a Syn5 promoter (lane a). Syn5 RNAP fails to produce transcripts if the first nucleotide downstream of the promoter is changed from G to T (lane b). […] T7 RNAP produces runoff and “N+1” products upon its own promoter (lane e). Sequences of templates can be found in Table 1. C) Schematic showing the identity of the two promoters based on the above data and previous bioinformatics analysis on the Syn5 and P-SSP7 genomes, respectively. Syn5 RNAP transcribes DNA fragments containing a Syn5 promoter to produce transcripts (>1500 for template 1, lane 1; and >200 nt for template 3, lane 3).
For the gel assay results shown in FIGS. 1, 2, 3, and 13, reaction mixtures (20 μl) contained 40 mM Tris-HCl (pH 7.9), 6 mM MgCl2, 2 mM spermidine, 10 mM DTT, 200 µM[…]P, GTP and UTP, 10 µM [[…]-^32P]CTP, 1.5 U/µl RNaseOUT™ recombinant ribonuclease inhibitor (Invitrogen), 100 nM Syn5 or T7 RNAP, and DNA templates as described in the figure legends (either 2 nM phage genomic DNA, 4 nM purified PCR products, or 1 µM synthetic dsDNA fragments). Reaction mixtures were incubated at 24° C. for 30 min. The reaction mixtures described in FIG. 6 contained 40 mM Tris-HCl (pH 8.0), 200 µM[…]P, GTP and UTP, 10 µM [[…]-^32P]CTP, 1.5 U/µl RNaseOUT™, 50 nM Syn5 RNAP, DNA templates, and various amounts of MgCl2, FeCl2, MnCl2 and KCl as described in the figure legends. […] After electrophoresis, gels were dried and analyzed using a Fuji BAS 1000 Bioimaging Analyzer.

[2] = tested on: T7 promoter; experiment: as above; format: biochemical, bacteriophage T7; conditions: T7 DNA fragment with T7 Φ1.1 B promoter
Protocol: FIGS. 3A-3C depict characterization of the Syn5 promoter. A) Determination of the 3′-end of Syn5 promoter. 3′-dATP, 3′-dGTP, 3′-dUTP replaced ATP, GTP and UTP, respectively, as chain terminator to sequence the 5′-end of Syn5 RNAP transcript on a template same as template 1 in FIG. 2B. Once the 5′-terminus of the transcript was determined, the sequence preceding it should be the promoter and the 3′-end of the promoter can thus be defined. A 25% TBE-urea gel was used for this assay. B) Cross recognition between Syn5 and T7 transcription systems. Syn5 RNAP synthesizes runoff products on a fragment of T7 DNA provided the T7 promoter is replaced by a Syn5 promoter (lane a). Syn5 RNAP fails to produce transcripts if the first nucleotide downstream of the promoter is changed from G to T (lane b). […]
For the gel assay results shown in FIGS. 1, 2, 3, and 13, reaction mixtures (20 μl) contained 40 mM Tris-HCl (pH 7.9), 6 mM MgCl2, 2 mM spermidine, 10 mM DTT, 200 µM[…]P, GTP and UTP, 10 µM [[…]-^32P]CTP, 1.5 U/µl RNaseOUT™ recombinant ribonuclease inhibitor (Invitrogen), 100 nM Syn5 or T7 RNAP, and DNA templates as described in the figure legends (either 2 nM phage genomic DNA, 4 nM purified PCR products, or 1 µM synthetic dsDNA fragments). […] After electrophoresis, gels were dried and analyzed using a Fuji BAS 1000 Bioimaging Analyzer.

[3] = tested on: E. coli total aminoacyl-tRNA synthetases; experiment: tRNA aminoacylation assay of RNAP products; format: biochemical; conditions: for desired (functional) tRNA in total RNA products: without gel extraction, maximum charging at 30 min
Protocol: FIGS. 11A-11B depict synthesis of tRNA^Arg by Syn5 and T7 RNA polymerase. A) Synthesis of tRNA^Arg at analytical scale by various amounts of Syn5 and T7 RNA polymerase. Using radioactively labeled CTP, the tRNA^Arg and N+1 product (as marked) produced by 22, 67, 200 nM Syn5 and T7 RNA polymerase at 37° C. are shown. […] The DNA encoding E. coli tRNA^ArgACG is directly downstream of a Syn5 or T7 promoter for the cognate RNA polymerase to synthesize run-off tRNA transcript. B) Synthesis of tRNA^Arg at preparative scale by Syn5 and T7 RNA polymerase. The sequencing gel is showing the analysis of the total RNA products by Syn5 and T7 RNAP at 37° C. in a 200 µl reaction. RNAs were purified by either ZYMO RNA clean kit or phenol/chloroform extraction followed by ethanol precipitation (P/C/E), as noted on top of the gel. The native tRNA^Arg (with modifications) overexpressed and purified from E. coli cells was used as a size marker. The two major bands in the total RNAs are tRNA^Arg and N+1 product as marked.
tRNA Aminoacylation Assay tRNA aminoacylation assay was performed as described previously (Tan et al.). A reaction containing 100 mM Tris-HCl, pH 7.5, 30 mM KCl, 12 mM MgCl2, 0.5 mM DTT, 4 mM ATP, 0.2 […]RNA (purified native E. coli tRNA^Arg (Zhu et al. (2012)), or purified tRNA^Arg transcripts from Syn5 or T7 RNAP reaction using RNA Clean & Concentrator™-5 kit), 15 µM [^3H] arginine (15 Ci/mmol), and 4 µM E. coli total aminoacyl-tRNA synthetases was incubated at 37° C. for the indicated time period. 5 µl reaction mixtures were spotted onto Whatman DE(81) filters and reactions stopped by 10% TCA solution containing 0.5 mM arginine. The filters were washed twice with 10% TCA and once with ethanol, and then dried. The amount of amino acid charged to tRNA was determined by measuring radioactivity remained on the filters.

Molecule	transcription from a Syn5 promoter [1]	transcription from a T7 promoter [2]	desired (functional) tRNA in total RNA products [3]	first nucleotide after promoter changed from G to T ([1]; FIG. 3B lane b)	amino acid charging activity of products ([3]; [3H] arginine, 37° C.)
T7 RNAP: RNA polymerase encoded by bacteriophage T7, from New England Biolabs [reference compound]	does not initiate transcription but does catalyze some non-specific RNA synthesis	initiates transcription and produces a runoff transcript	15%		
B1	produce a run-off product of the expected size	does not recognize a T7 promoter	40%	unable to incorporate UTP as the first ribonucleotide	much higher than that obtained from the T7 RNAP reaction

— patent publication US11066655B2, “RNA polymerase, methods of purification and methods of use” (President and Fellows of Harvard College, priority 2013, dated 2021)
